Assay results from paper PMC5798227.

Biological target: DS-SOSIP.664 trimer (BG505) (HIV-1 BG505 (clade A))
Assay: SPR

2-domain soluble CD4 (receptor) showed a Kd of 8 nM.
